{"source": "paper PMC11088704", "about": "“Structural basis for the regulation of plant transcription factor WRKY33 by the VQ protein SIB1” (Communications Biology, 2024)", "binders": {"B1": {"name": "SIB1^11-100 (T11-L100 segment of Arabidopsis sigma factor-binding protein SIB1) (domain or fragment, Arabidopsis thaliana, UniProt Q9LDH1 11-100, looked up)", "chain": "TTSLDKKKPSPVSRKSPKQKKKTTSTNKPIKVRYISNPMRVQTCASKFRELVQELTGQDAVDLQPEPIYSPSSDDHNLSPPAENLAPRVL", "notes": "SIB1 (VQ23), Arabidopsis, residues T11-L100; the N-terminal chloroplast targeting signal and the C-terminal 51 residues are deleted; Used unlabelled, 15N- or 13C/15N-labelled; also called VQ23; source: E. coli BL21(DE3), purified (Ni-NTA, gel filtration Superdex-75)"}, "B2": {"name": "SIB1^mini (SIB1^46–69 peptide, minimal SIB1 construct) (peptide, UniProt Q9LDH1 46-69, looked up)", "peptide": "SNPMRVQTCASKFRELVQELTGQD", "notes": "SIB1 (VQ23), Arabidopsis, residues 46-69: the VQ motif and its preceding segment; source: synthetic peptide"}, "B3": {"name": "SIB1^mini-V51R mutant peptide (peptide, UniProt Q9LDH1 46-69, looked up)", "peptide": "SNPMRRQTCASKFRELVQELTGQD", "notes": "SIB1 (VQ23), Arabidopsis, residues 46-69 with V51R"}, "B4": {"name": "Trx-SIB1 fusion protein (thioredoxin-fused SIB1) (domain or fragment, Arabidopsis thaliana, UniProt Q9LDH1 11-100, looked up)", "chain": "B1 chain", "notes": "SIB1 (VQ23), Arabidopsis; limits are not restated for the Trx fusion; The methods give 24 kDa for 'Trx'"}, "B5": {"name": "W-box DNA (dsDNA)", "DNA 1": "AAAGTTGACCAA", "DNA 2": "TTGGTCAACTTT"}}, "key": {"[1]": {"biological_target": "T1, WRKY33 C-terminal DNA-binding domain (WRKY33_C) (Arabidopsis thaliana, UniProt Q8S8P5 331-422)", "T1 construct": "it holds I350 and the truncation V352-A422 is derived from it; Zinc-finger domain; 20 uM ZnSO4 in the buffers; Construct limits may be read from PDB 8K31; also called WRKY33 cDBD; WK33; source: E. coli BL21(DE3), purified (Ni-NTA, gel filtration Superdex-75)", "T1 sequence (Q8S8P5 331-422)": "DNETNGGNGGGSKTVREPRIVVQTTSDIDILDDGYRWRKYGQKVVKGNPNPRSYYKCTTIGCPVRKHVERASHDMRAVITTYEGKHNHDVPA", "test": "cross-linking; EGS crosslinker, 30-fold molar excess; WRKY33_C and SIB1 each 90 uM; 20 mM HEPES pH 7.0, 50 mM NaCl; room temperature; Tricine-SDS-PAGE", "conditions": "both partners purified"}, "WRKY33_C D357C mutant": {"biological_target": "T2, WRKY33_C D357C mutant (Arabidopsis thaliana, UniProt Q8S8P5 331-422, D357C)", "T2 construct": "WRKY33, Arabidopsis, C-terminal DBD; The mutant without the maleimide-EDTA tag; source: E. coli, expressed and purified similarly to the wild-type protein", "T2 sequence (Q8S8P5 331-422 D357C)": "as the sequence (Q8S8P5 331-422) above, with D27C counted along it", "test": "NMR titration; 2D 1H-15N HSQC of 15N-labeled SIB1 free and in complex with unlabeled WRKY33_C or its mutants; 30 mM MES pH 6.0, 50 mM NaCl, 20 uM ZnSO4, 25 °C", "conditions": "both partners purified"}, "WRKY33_C R366C mutant": {"biological_target": "T3, WRKY33_C R366C mutant (Arabidopsis thaliana, UniProt Q8S8P5 331-422, R366C)", "T3 construct": "WRKY33, Arabidopsis, C-terminal DBD; also called R336 (as printed once); source: E. coli, expressed and purified similarly to the wild-type protein", "T3 sequence (Q8S8P5 331-422 R366C)": "as the sequence (Q8S8P5 331-422) above, with R36C counted along it", "test": "NMR titration; 2D 1H-15N HSQC of 15N-labeled SIB1 free and in complex with unlabeled WRKY33_C or its mutants; 30 mM MES pH 6.0, 50 mM NaCl, 20 uM ZnSO4, 25 °C", "conditions": "both partners purified"}, "WRKY33_C K376C mutant": {"biological_target": "T4, WRKY33_C K376C mutant (Arabidopsis thaliana, UniProt Q8S8P5 331-422, K376C)", "T4 construct": "WRKY33, Arabidopsis, C-terminal DBD; The mutant without the maleimide-EDTA tag; source: E. coli, expressed and purified similarly to the wild-type protein", "T4 sequence (Q8S8P5 331-422 K376C)": "as the sequence (Q8S8P5 331-422) above, with K46C counted along it", "test": "NMR titration; 2D 1H-15N HSQC of 15N-labeled SIB1 free and in complex with unlabeled WRKY33_C or its mutants; 30 mM MES pH 6.0, 50 mM NaCl, 20 uM ZnSO4, 25 °C", "conditions": "both partners purified"}, "[2]": {"biological_target": "T5, spin-labeled WRKY33_C D357C (Arabidopsis thaliana, UniProt Q8S8P5 331-422, D357C, Cys357 labelled with N-[2-maleimidoethyl]ethylenediamine-N,N,N',N'-tetraacetic acid monoamide, chelating Mn^2+ (paramagnetic) or Ca^2+)", "T5 construct": "WRKY33, Arabidopsis, C-terminal DBD; also called D357C spin-labeled; Ca^2+-chelated WRKY33_C mutant; source: E. coli, purified as the wild type; labelled, then purified on a cation exchange column", "T5 sequence (Q8S8P5 331-422 D357C)": "as the sequence (Q8S8P5 331-422) above, with D27C counted along it", "test": "NMR titration; 2D 1H-15N HSQC of 15N-labeled SIB1 free and in complex with unlabeled WRKY33_C or its mutants; 30 mM MES pH 6.0, 50 mM NaCl, 20 uM ZnSO4, 25 °C", "conditions": "both partners purified"}, "[3]": {"biological_target": "T6, spin-labeled WRKY33_C R366C (Arabidopsis thaliana, UniProt Q8S8P5 331-422, R366C, Cys366 labelled with N-[2-maleimidoethyl]ethylenediamine-N,N,N',N'-tetraacetic acid monoamide, chelating Mn^2+ (paramagnetic) or Ca^2+)", "T6 construct": "WRKY33, Arabidopsis, C-terminal DBD; also called R366C spin-labeled; Ca^2+-chelated WRKY33_C mutant; source: E. coli, purified as the wild type; labelled, then purified on a cation exchange column", "T6 sequence (Q8S8P5 331-422 R366C)": "as the sequence (Q8S8P5 331-422) above, with R36C counted along it", "test": "NMR titration; 2D 1H-15N HSQC of 15N-labeled SIB1 free and in complex with unlabeled WRKY33_C or its mutants; 30 mM MES pH 6.0, 50 mM NaCl, 20 uM ZnSO4, 25 °C", "conditions": "both partners purified"}, "[4]": {"biological_target": "T7, spin-labeled WRKY33_C K376C (Arabidopsis thaliana, UniProt Q8S8P5 331-422, K376C, Cys376 labelled with N-[2-maleimidoethyl]ethylenediamine-N,N,N',N'-tetraacetic acid monoamide, chelating Mn^2+ (paramagnetic) or Ca^2+)", "T7 construct": "WRKY33, Arabidopsis, C-terminal DBD; also called K376C spin-labeled; Ca^2+-chelated WRKY33_C mutant; source: E. coli, purified as the wild type; labelled, then purified on a cation exchange column", "T7 sequence (Q8S8P5 331-422 K376C)": "as the sequence (Q8S8P5 331-422) above, with K46C counted along it", "test": "NMR titration; 2D 1H-15N HSQC of 15N-labeled SIB1 free and in complex with unlabeled WRKY33_C or its mutants; 30 mM MES pH 6.0, 50 mM NaCl, 20 uM ZnSO4, 25 °C", "conditions": "both partners purified"}, "WRKY33_C I350A mutant": {"biological_target": "T8, WRKY33_C I350A mutant (Arabidopsis thaliana, UniProt Q8S8P5 331-422, I350A)", "T8 construct": "WRKY33, Arabidopsis, C-terminal DBD; source: E. coli BL21(DE3), purified (Ni-NTA, gel filtration Superdex-75)", "T8 sequence (Q8S8P5 331-422 I350A)": "as the sequence (Q8S8P5 331-422) above, with I20A counted along it", "test": "NMR titration; 2D 1H-15N HSQC of 15N-labeled WRKY33_C (or its mutants), 0.1 mM, with SIB1 or SIB1 peptides added at 2:1 (5:1 also for SIB1^40–60 and SIB1^55–69); 30 mM MES pH 6.0, 50 mM NaCl, 20 uM ZnSO4, 10% D2O, 25 °C", "conditions": "both partners purified"}, "WRKY33_C V351A mutant": {"biological_target": "T9, WRKY33_C V351A mutant (Arabidopsis thaliana, UniProt Q8S8P5 331-422, V351A)", "T9 construct": "WRKY33, Arabidopsis, C-terminal DBD; source: E. coli BL21(DE3), purified (Ni-NTA, gel filtration Superdex-75)", "T9 sequence (Q8S8P5 331-422 V351A)": "as the sequence (Q8S8P5 331-422) above, with V21A counted along it", "test": "NMR titration; 2D 1H-15N HSQC of 15N-labeled WRKY33_C (or its mutants), 0.1 mM, with SIB1 or SIB1 peptides added at 2:1 (5:1 also for SIB1^40–60 and SIB1^55–69); 30 mM MES pH 6.0, 50 mM NaCl, 20 uM ZnSO4, 10% D2O, 25 °C", "conditions": "both partners purified"}, "[5]": {"biological_target": "T10, WRKY33_C-I358D mutant protein (Arabidopsis thaliana, UniProt Q8S8P5 331-422, I358D)", "T10 construct": "WRKY33, Arabidopsis, C-terminal DBD; source: E. coli BL21(DE3), purified (Ni-NTA, gel filtration Superdex-75)", "T10 sequence (Q8S8P5 331-422 I358D)": "as the sequence (Q8S8P5 331-422) above, with I28D counted along it", "test": "NMR titration; 2D 1H-15N HSQC of 15N-labeled WRKY33_C (or its mutants), 0.1 mM, with SIB1 or SIB1 peptides added at 2:1 (5:1 also for SIB1^40–60 and SIB1^55–69); 30 mM MES pH 6.0, 50 mM NaCl, 20 uM ZnSO4, 10% D2O, 25 °C", "conditions": "both partners purified"}, "[6]": {"biological_target": "T11, WRKY33_C-I360D mutant protein (Arabidopsis thaliana, UniProt Q8S8P5 331-422, I360D)", "T11 construct": "WRKY33, Arabidopsis, C-terminal DBD; source: E. coli BL21(DE3), purified (Ni-NTA, gel filtration Superdex-75)", "T11 sequence (Q8S8P5 331-422 I360D)": "as the sequence (Q8S8P5 331-422) above, with I30D counted along it", "test": "NMR titration; 2D 1H-15N HSQC of 15N-labeled WRKY33_C (or its mutants), 0.1 mM, with SIB1 or SIB1 peptides added at 2:1 (5:1 also for SIB1^40–60 and SIB1^55–69); 30 mM MES pH 6.0, 50 mM NaCl, 20 uM ZnSO4, 10% D2O, 25 °C", "conditions": "both partners purified"}, "[7]": {"biological_target": "T1, WRKY33 C-terminal DNA-binding domain …", "test": "SEC; Superdex-75; Trx-SIB1 incubated with WRKY33_C before loading; protein standards for calibration", "conditions": "both partners purified"}, "WRKY33_C": {"biological_target": "WRKY33_C (Arabidopsis thaliana, UniProt Q8S8P5 345-422)", "sequence (Q8S8P5 345-422)": "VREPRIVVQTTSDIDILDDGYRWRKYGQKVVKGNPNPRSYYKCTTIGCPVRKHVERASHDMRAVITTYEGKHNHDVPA", "test": "EMSA; no SIB1; estimated from band intensity (an earlier response in the peer review file prints 150 uM, called sub-micromolar); EMSA: NMR buffer (composition not given in material) with 100 mM NaCl, 1.0 ng dsDNA in 20 ul, room temperature 20 min, SIB1:WRKY33_C 2:1; gel in 0.5x TBE, GelRed stain", "conditions": "protein: recombinant; tags: C-terminal 6xHis; blunt"}}, "data": [{"binder": "B1", "values": [{"measurement": "stoichiometry N", "setting": "[1]", "result": 1}, {"measurement": "binding result", "setting": "WRKY33_C D357C mutant", "result": "binds"}, {"measurement": "binding result", "setting": "WRKY33_C R366C mutant", "result": "binds"}, {"measurement": "binding result", "setting": "WRKY33_C K376C mutant", "result": "binds"}, {"measurement": "binding result", "setting": "[2]", "result": "binds"}, {"measurement": "binding result", "setting": "[3]", "result": "binds"}, {"measurement": "binding result", "setting": "[4]", "result": "binds"}]}, {"binder": "B2", "values": [{"measurement": "binding result", "setting": "WRKY33_C I350A mutant", "result": "binds"}, {"measurement": "binding result", "setting": "WRKY33_C V351A mutant", "result": "binds"}]}, {"binder": "B3", "values": [{"measurement": "binding result", "setting": "[5]", "result": "binds"}, {"measurement": "binding result", "setting": "[6]", "result": "binds"}]}, {"binder": "B4", "values": [{"measurement": "stoichiometry N", "setting": "[7]", "result": 1}]}, {"binder": "B5", "values": [{"measurement": "Kd", "setting": "WRKY33_C", "result": "~150", "unit": "nM"}]}]}
